No end group written: not given here. fluorescein = fluorescein attached to the C-terminus
Columns and labels:
[1] = target: T1, Purified GST (glutathione S-transferase) (UniProt P08515 1-218 = GST); test: fluorescence polarization, GST titrated into 9 nM tracer
T1 construct: Control protein in the FP assay; also called GST alone
Source text: The FP assay uses a tetrapeptide with a sequence arginine-isoleucine-phenylalanine-serine (RIFS) with fluorescein attached to the C-terminus as tracer that was previously shown to bind to the Ubr-boxes of Ubr1 and Ubr2 with similar binding affinity. Assays were developed in 384-well plates, which were read on a Clariostar Reader. Signal-to-background ratio (S/B) was optimized by varying concentrations of GST-Ubr-box and tracer concentrations. GST-fusion proteins were used due to its larger size than Ubr-box alone to increase the FP effect. […] The optimized condition includes receptor concentration [GST-UBR1]=2 μM, tracer concentration [tracer]=9 nM, and the highest concentration of unlabeled peptidomimetic compound competitors at 200 μM with 3× serial dilutions.

[2] = target: T2, GST-UBR1 fusion protein (GST-Ubr-box of Ubr1) (human); test: fluorescence polarization, GST-Ubr-box titrated into 9 nM tracer
T2 construct: GST fusion used as such in the FP assay
T2 sequence (chain, as listed by the source limits assumed): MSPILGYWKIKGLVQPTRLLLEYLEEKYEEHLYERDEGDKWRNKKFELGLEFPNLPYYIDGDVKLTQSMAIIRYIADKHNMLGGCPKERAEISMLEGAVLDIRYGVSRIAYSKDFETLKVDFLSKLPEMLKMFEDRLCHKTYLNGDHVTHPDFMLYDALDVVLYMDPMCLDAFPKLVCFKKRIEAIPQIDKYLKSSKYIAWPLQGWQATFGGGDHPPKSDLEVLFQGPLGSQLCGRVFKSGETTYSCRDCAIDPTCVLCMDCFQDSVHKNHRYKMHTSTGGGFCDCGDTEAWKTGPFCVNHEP

[3] = target: T3, GST-UBR2 fusion protein (GST-Ubr-box of Ubr2) (human); test: as above
T3 construct: GST fusion used as such in the FP assay
T3 sequence (chain, as listed by the source limits assumed): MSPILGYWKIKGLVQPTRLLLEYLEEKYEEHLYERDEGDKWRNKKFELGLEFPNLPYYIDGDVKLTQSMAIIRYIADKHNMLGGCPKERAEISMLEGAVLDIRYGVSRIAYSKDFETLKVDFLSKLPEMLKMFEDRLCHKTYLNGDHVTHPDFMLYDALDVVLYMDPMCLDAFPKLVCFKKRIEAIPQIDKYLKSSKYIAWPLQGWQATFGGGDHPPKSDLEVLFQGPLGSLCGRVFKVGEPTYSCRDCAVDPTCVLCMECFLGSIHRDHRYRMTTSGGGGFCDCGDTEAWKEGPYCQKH

GST-Ubr-box of Ubr4 = target: T4, GST-Ubr-box of Ubr4 (UniProt Q5T4S7 1656-1729); test: as above
T4 construct: domain: Ubr-box; not shown: glutathione S-transferase (GST) tag
T4 sequence (Q5T4S7 1656-1729): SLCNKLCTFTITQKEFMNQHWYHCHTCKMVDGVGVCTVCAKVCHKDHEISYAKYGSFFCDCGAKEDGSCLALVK

GST-Ubr-box of Ubr5 = target: T5, GST-Ubr-box of Ubr5 (UniProt O95071 1177-1245); test: as above
T5 construct: domain: Ubr-box; not shown: glutathione S-transferase (GST) tag
T5 sequence (looked up): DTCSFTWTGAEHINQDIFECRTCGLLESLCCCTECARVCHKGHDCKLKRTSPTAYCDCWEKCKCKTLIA

T1 sequence (P08515 whole entry): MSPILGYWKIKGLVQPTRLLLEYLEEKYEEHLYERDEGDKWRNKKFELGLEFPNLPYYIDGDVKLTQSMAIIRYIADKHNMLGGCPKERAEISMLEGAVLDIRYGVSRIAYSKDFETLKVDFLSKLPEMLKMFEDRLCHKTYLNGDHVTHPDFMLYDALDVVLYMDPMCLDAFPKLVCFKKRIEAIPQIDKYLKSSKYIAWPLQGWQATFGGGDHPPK

B1: tetrapeptide arginine-isoleucine-phenylalanine-serine (RIFS) with fluorescein attached to the C-terminus (peptide)
peptide: RIFS-fluorescein
notes: FP tracer, used at 9 nM; also called tracer
- binding result [1]: no binding
- binding result [2]: binds
- binding result [3]: binds
- binding result (GST-Ubr-box of Ubr4): no binding
- binding result (GST-Ubr-box of Ubr5): no binding

From patent US20250186562A1 (University of California, published 2025)
